# Laboratory results taken from patent US20180306789A1 (published 2018).
# T1: DDB1 and CUL4 associated factor 4-like 2 (DCAF4L2); peptide DCAF4L2-001 peptide on HLA-A*02:01 (human)
# T1 peptide: ILQDGQFLV
# T2: VPS51-001 (peptide code; source protein not spelled out) peptide on HLA-A*02:01 (human)
# T2 peptide: TLTDEQFLV
# T3: AHR-002 (peptide code; source protein not spelled out) peptide on HLA-A*02:01 (human)
# T3 peptide: NLQEGEFLL
# T4: KCM-001 (peptide code; source protein not spelled out) peptide on HLA-A*02:01 (human)
# T4 peptide: TLQNSQFLL
# T5: GRB14-002 (peptide code; source protein not spelled out) peptide on HLA-A*02:01 (human)
# T5 peptide: GLVDGVFLV
# T6: GSTA4-001 (peptide code; source protein not spelled out) peptide on HLA-A*02:01 (human)
# T6 peptide: KLQDGNHLL
# T7: MUC-009 (peptide code; source protein not spelled out) peptide on HLA-A*02:01 (human)
# T7 peptide: ILQEGTFKA
# T8: SNR-004 (peptide code; source protein not spelled out) peptide on HLA-A*02:01 (human)
# T8 peptide: ILQDGRIFI
# T9: WRN-002 (peptide code; source protein not spelled out) peptide on HLA-A*02:01 (human)
# T9 peptide: ILQDLQPFL
# T10: VPS39-001 (peptide code; source protein not spelled out) peptide on HLA-A*02:01 (human)
# T10 peptide: LLQDKQFEL
# T11: PFN1-001 (peptide code; source protein not spelled out) peptide on HLA-A*02:01 (human)
# T11 peptide: LLQDGEFSM
# B1: R52P2G11 (TCR, V domains shown)
# Valpha: KNQVEQSPQSLIILEGKNCTLQCNYTVSPFSNLRWYKQDTGRGPVSLTIMTFSENTKSNGRYTATLDADTKQSSLHITASQLSDSASYICVVSAYGKLQFGAGTQVVVTP
# Vbeta: DAGVIQSPRHEVTEMGQEVTLRCKPISGHNSLFWYRQTMMRGLELLIYFNNNVPIDDSGMPEDRFSAKMPNASFSTLKIQPSEPRDSAVYFCASSLGSPDGNQPQHFGDGTRLSIL
# B2: R53P2A9 (TCR, V domains shown)
# Valpha: AQTVTQSQPEMSVQEAETVTLSCTYDTSESDYYLFWYKQPPSRQMILVIRQEAYKQQNATENRFSVNFQKAAKSFSLKISDSQLGDAAMYFCAYNSYAGGTSYGKLTFGQGTILTVHP
# Vbeta: DAGVTQSPTHLIKTRGQQVTLRCSPISGHKSVSWYQQVLGQGPQFIFQYYEKEERGRGNFPDRFSARQFPNYSSELNVNALLLGDSALYLCASSLDGTSEQYFGPGTRLTVT
# B3: R36P3F9 (TCR, V domains shown)
# Valpha: SQQGEEDPQALSIQEGENATMNCSYKTSINNLQWYRQNSGRGLVHLILIRSNEREKHSGRLRVTLDTSKKSSSLLITASRAADTASYFCATVSNYQLIWGAGTKLIIKP
# Vbeta: EAQVTQNPRYLITVTGKKLTVTCSQNMNHEYMSWYRQDPGLGLRQIYYSMNVEVTDKGDVPEGYKVSRKEKRNFPLILESPSPNQTSLYFCASSSTSGGLSGETQYFGPGTRLLVL
# Biological target: T1, DDB1 and CUL4 associated factor 4-like …
# Assay: multimer staining
row,binding result,Binder
1,recognises,B1
2,recognises,B2
3,recognises,B3

# Biological target: T2, VPS51-001 (peptide code; source protein …)
# Assay: cytokine release
row,binding result,Binder
1,no recognition,B1
2,no recognition,B2
3,no recognition,B3

# Biological target: T3, AHR-002 (peptide code; source protein …)
# Assay: cytokine release
row,binding result,Binder
1,no recognition,B1
2,no recognition,B2
3,no recognition,B3

# Biological target: T4, KCM-001 (peptide code; source protein …)
# Assay: cytokine release
row,binding result,Binder
1,no recognition,B1
2,no recognition,B2
3,no recognition,B3

# Biological target: T5, GRB14-002 (peptide code; source protein …)
# Assay: cytokine release
row,binding result,Binder
1,no recognition,B1
2,no recognition,B2
3,no recognition,B3

# Biological target: T6, GSTA4-001 (peptide code; source protein …)
# Assay: cytokine release
row,binding result,Binder
1,no recognition,B1
2,no recognition,B2
3,no recognition,B3

# Biological target: T7, MUC-009 (peptide code; source protein …)
# Assay: cytokine release
row,binding result,Binder
1,no recognition,B1
2,no recognition,B2
3,no recognition,B3

# Biological target: T8, SNR-004 (peptide code; source protein …)
# Assay: cytokine release
row,binding result,Binder
1,no recognition,B1
2,no recognition,B2
3,no recognition,B3

# Biological target: T9, WRN-002 (peptide code; source protein …)
# Assay: cytokine release
row,binding result,Binder
1,no recognition,B1
2,no recognition,B2
3,no recognition,B3

# Biological target: T10, VPS39-001 (peptide code; source protein …)
# Assay: cytokine release
row,binding result,Binder
1,no recognition,B1
2,no recognition,B2
3,no recognition,B3

# Biological target: T11, PFN1-001 (peptide code; source protein …)
# Assay: cytokine release
row,binding result,Binder
1,no recognition,B1
2,no recognition,B2
3,no recognition,B3
